Measurements: patent US20240207433A1

Target: human alpha-enolase protein (ENO-1) (human) (UniProt P06733)
Assay: cell-based or functional assay

Sequence of UniProt P06733 (P06733 2-434): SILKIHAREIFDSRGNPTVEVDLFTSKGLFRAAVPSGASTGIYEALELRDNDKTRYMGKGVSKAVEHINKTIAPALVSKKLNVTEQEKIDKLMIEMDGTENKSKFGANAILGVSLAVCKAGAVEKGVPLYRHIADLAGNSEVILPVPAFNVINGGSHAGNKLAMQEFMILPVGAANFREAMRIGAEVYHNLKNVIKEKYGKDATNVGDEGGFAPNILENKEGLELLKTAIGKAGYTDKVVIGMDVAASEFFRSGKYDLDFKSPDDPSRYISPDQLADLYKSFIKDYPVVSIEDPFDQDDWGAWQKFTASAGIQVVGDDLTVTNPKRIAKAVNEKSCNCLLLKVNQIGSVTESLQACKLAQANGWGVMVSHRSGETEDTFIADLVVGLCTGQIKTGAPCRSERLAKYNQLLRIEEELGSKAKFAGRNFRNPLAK

HuL001-SMCC-DM1 was tested, and the IC50 of cytotoxicity (CCK-8), A549, IL-6 was 11.2 nM, the IC50 of cytotoxicity (CCK-8), A549, MCP-1 was 12.1 nM and the IC50 of cytotoxicity (CCK-8), A549, TGF-β was 8.2 nM. For the same substance, the IC50 of cytotoxicity (CCK-8), A549, untreated was 56 nM, the IC50 of cytotoxicity (CCK-8), DB, IL-6 was 5.8 nM and the IC50 of cytotoxicity (CCK-8), DB, MCP-1 was 4.1 nM. For the same substance, the IC50 of cytotoxicity (CCK-8), DB, TGF-β was 5.1 nM, the IC50 of cytotoxicity (CCK-8), DB, untreated was 5.5 nM and the IC50 of cytotoxicity (CCK-8), GA-10, IL-6 was 26.6 nM. The IC50 of cytotoxicity (CCK-8), GA-10, MCP-1 was 25.6 nM, the IC50 of cytotoxicity (CCK-8), GA-10, TGF-β was 22.8 nM and the IC50 of cytotoxicity (CCK-8), GA-10, untreated was 37.8 nM. The IC50 of cytotoxicity (CCK-8), HT, IL-6 was 6.6 nM, the IC50 of cytotoxicity (CCK-8), HT, MCP-1 was 7.6 nM and the IC50 of cytotoxicity (CCK-8), HT, TGF-β was 6.1 nM. It also gave an IC50 of cytotoxicity (CCK-8), HT, untreated of 7.3 nM, an IC50 of cytotoxicity (CCK-8), MCF-7, IL-6 of 38.6 nM and an IC50 of cytotoxicity (CCK-8), MCF-7, MCP-1 of 36.2 nM. It also gave an IC50 of cytotoxicity (CCK-8), MCF-7, TGF-β of 53.5 nM, an IC50 of cytotoxicity (CCK-8), MCF-7, untreated of 74.9 nM and an IC50 of cytotoxicity (CCK-8), MDA-MB-175, IL-6 of 45.1 nM. The IC50 of cytotoxicity (CCK-8), MDA-MB-175, MCP-1 was 40.5 nM, the IC50 of cytotoxicity (CCK-8), MDA-MB-175, TGF-β was 38.3 nM and the IC50 of cytotoxicity (CCK-8), MDA-MB-175, untreated was 76.4 nM. For the same substance, the IC50 of cytotoxicity (CCK-8), MDA-MB-231, IL-6 was 34.6 nM, the IC50 of cytotoxicity (CCK-8), MDA-MB-231, MCP-1 was 22.4 nM and the IC50 of cytotoxicity (CCK-8), MDA-MB-231, TGF-β was 24.2 nM. It also gave an IC50 of cytotoxicity (CCK-8), MDA-MB-231, untreated of 69 nM, an IC50 of cytotoxicity (CCK-8), MDA-MB-453, IL-6 of 22.8 nM and an IC50 of cytotoxicity (CCK-8), MDA-MB-453, MCP-1 of 24.7 nM. For the same substance, the IC50 of cytotoxicity (CCK-8), MDA-MB-453, TGF-β was 16.6 nM, the IC50 of cytotoxicity (CCK-8), MDA-MB-453, untreated was 39.8 nM and the IC50 of cytotoxicity (CCK-8), PANC-1, IL-6 was 134 nM. It also gave an IC50 of cytotoxicity (CCK-8), PANC-1, MCP-1 of 110 nM, an IC50 of cytotoxicity (CCK-8), PANC-1, TGF-β of 116 nM and an IC50 of cytotoxicity (CCK-8), PANC-1, untreated of 174 nM. The IC50 of cytotoxicity (CCK-8), Raji, IL-6 was 17.1 nM, the IC50 of cytotoxicity (CCK-8), Raji, MCP-1 was 21.7 nM and the IC50 of cytotoxicity (CCK-8), Raji, TGF-β was 18.6 nM. The IC50 of cytotoxicity (CCK-8), Raji, untreated was 32.2 nM, the IC50 of cytotoxicity (CCK-8), SU-DHL-4, IL-6 was 8.3 nM and the IC50 of cytotoxicity (CCK-8), SU-DHL-4, MCP-1 was 7.6 nM. It also gave an IC50 of cytotoxicity (CCK-8), SU-DHL-4, TGF-β of 7.4 nM, an IC50 of cytotoxicity (CCK-8), SU-DHL-4, untreated of 7.65 nM and an IC50 of cytotoxicity (CCK-8), Toledo, IL-6 of 11.4 nM. For the same substance, the IC50 of cytotoxicity (CCK-8), Toledo, MCP-1 was 8.1 nM, the IC50 of cytotoxicity (CCK-8), Toledo, TGF-β was 9.8 nM and the IC50 of cytotoxicity (CCK-8), Toledo, untreated was 8 nM. The IC50 of cytotoxicity (CCK-8), U937, IL-6 was 7.1 nM, the IC50 of cytotoxicity (CCK-8), U937, MCP-1 was 9.7 nM and the IC50 of cytotoxicity (CCK-8), U937, TGF-β was 7.5 nM. For the same substance, the IC50 of cytotoxicity (CCK-8), U937, untreated was 75 nM.
